Assay results published in publication PMC7607744 (2020).
No end group written: not given here.

Biological target: T1, CD138pep (also: FITC-labeled, site not given here)
T1 chain: RKRLQVQLSIRT-NH2
Experiment: flow cytometry binding to H929 cells

Kd: 3.1 µM
B1: CD138 (Syndecan-1) (protein)
chain: QIVATNLPPEDQDGSGDDSDNFSGSGAGALQDITLSQQTPSTWKDTQLLTAIPTSPEPTGLEATAASTSTLPAGEGPKEGEAVVLPEVEPGLTAREQEATPRPRETTQLPTTHLASTTTATTAQEPATSHPHRDMQPGHHETSTPAGPSQADLHTPHTEDGGPSATERAAEDGASSQLPAAEGSGEQDFTFETSGENTAVVAVEPDRRNQSPVDQGATGASQGLLDRKEVLG
